From the nanobody polyreactivity screen of Harvey et al. (2022)

test: yeast display, Sf9 membrane polyspecificity reagent, FACS + sequencing; frameworks hold sequencing errors
Procedure, shortened: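 In a synthetic yeast display library (Saccharomyces cerevisiae BJ5465), nanobody expression was induced with galactose for 36–48 hours. FACS gates were set low and high (top ~1%) using anti-HA fluorescence for expression and streptavidin fluorescence for binding of the Sf9 membrane reagent. Each polyreactivity label is drawn from the gate of origin.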

Sequence	polyreactivity (PSR sort gate)
QVQLVESGGGLVQAGGSLRLSCAASGYTFYVYAMGWYRQAPGKERELVAAIRSGGTTYYADSVKGRFTISRDNAKNTVYLQMNSLKPEDTAVYYCAAVSSDYPFEGNYWGQGTQVTVSS	low polyreactivity
QVQLVESGGGLVQAGGSLRLSCAASGSIFDIYAMGWYRQAPGKERELVAAITNGGSTYADSVKGRFTISRDNAKNTVYLQMNSLKPEDTAVYYCAAYVDQYEYNYWGQGTQVTVSS	low polyreactivity
QVQLVESGGGLVQAGGSLRLSCAASGYTFVTYAMGWYRQAPGKERELVAAISYTGGSTYYADSVKGRFTISRDNAKNTVYLQMNSLKPEDTAVYYCATLRNHYRYDYWGQGTQVTVSS	low polyreactivity
QVQLVESGGGLVQAGGSLRLSCAASGRTFWYYAMGWYRQAPGHERELVAAITGRGGRTYYADSVTGRFTISRDNAKNTVYLQMNSLKPEDTAVYYCAARLPYLGGYDYWGQGTQVTVSS	high polyreactivity
QVQLVESGGGLDQARGSLRLSCAASGFTFKFYAMGWYRQSPGKEREFVAAISGSGDSTYADSVKGRFTISRDNAKNTVYLQMNSLKPEDTAVYYCNARYAGVPWWGYYSSEVNYWGQGTQVTVSS	low polyreactivity
QDQLVESGGGLVQAGGSLRLSCAASVFTFRYYAMGWYRQAPGKEREFVATISWSGGSTYYADSVKGRFTISRDNAKNTVYLQMNSLKPEDTAVYYCAAGRVGTTTLEFYYCGQGTQVTVSS	high polyreactivity
QVQLVESGGGLVQAGRSLRLSCAASGSTFWEYAMGWYRQAPGNEREFVAAISTSGGSTYYADSLKGRFTISRDTAKYTVYLQMNSLKPEDTAVYYCAAGRVRRRVWYNYWGQGTQVTVSS	high polyreactivity
QVQLVESGGGLVQAGGSLRLSCAASGRIFLYYAMGWYRQAPGKERELVATISSGGSTHYADSVKGRFTISRDNAKNTVYLQMNSMKPEDTAVYYCAAYGYGRGLEPSTTEMDYWGQGTQVTVSS	low polyreactivity
QVQLLESGGGLVQAGGILRLSCAASGRTLHYSAMGWYRQAPGIERELVAAISARGGRTYYADSVKGRFTISRDNAKNTVYLLMQTLKPEDTAVYYCAAAGYITRYDRYDYWGQGTHVTVSS	high polyreactivity
QVQLVESGGGLVQAGGSLRLSCAASGRIFVLYAMGWYRQAPGKERELVAAINWSGGSTFYADSVKGRFTISRDNAKNTVYLQMNSLKPEDTAVYYCAARRGYNDGYWGQGTQVTVSS	high polyreactivity
QVQLVESGGGLVQAGGSLRLSCAASGSTFDLNAMGWYRQAPGKERELVARITSSTGRTFYADSVKGRFTISRDNAKNTVYLQMNSLKPEDTAVYYCAKDHASYSYWPSVLPYDHWGQGTQVTVSS	low polyreactivity
QVQLVESGGGLVQAGGSLRLSCAASGSTFTGNAMGWYRQAPGKERELVASIRRIGSPYYADSVKGRFTISRDNAKNTVDLQMISLKPEDTAVFYCAAAVKIRTPYQYGYWGQGTQVTVSS	high polyreactivity
QVQLVESGGGLVQAGGSLRLSCAASGSIFTRYVMGWYRQAPGKERELVAAISGRGSSTYYADSVKGRFTISRDNAKNTVYLQMNSLKPEDTAVYYCAADRVRRPSPGGMDYWGQGTQVTVSS	high polyreactivity
QVQLVESGGGLVQAGGSLRLSCAASGFTFSLYAMGWYRQAPGKERELVAAISSRGGTTYYADSVKGRFTISRDNAKNTVYLQMNSLKPEDTAVYYCAARYVYTRSAFDYWGQGTQVTVSS	high polyreactivity
QVQHVESGGGLVQAGGCLRVSCAASGRTFIYYAMGGYRPAPGKERELVAAITNRGGSTYYADSVKGRFTISRDNAQNTVYLLMNSLNPEDTAVYYCAARGKYPSASAYTYSYGYWGQGTQVTVSS	high polyreactivity
QVQLVESGGGLVQAGGSLRLSCAASGFISGYYTMRWYRQAPGKERELVAVINSGGSTYYADSVKGRFTISRDNAKNTVYLQMNSLKPEDTAVYYCAKLGGKYSRYYYWGQGTQVTVSS	low polyreactivity

Sequence	polyreactivity (PSR sort gate)
QVQLVESGGGLVQAGGSLRLSCAASGRTFVYNAMGWYRPAPGKERELVAAIDGGGDRTYYADSVKGRFTISRDNAKNTVYLQMNSLKPEDTAVYYCARDPGDTYYYSYPEGDYWGQGTQVTVSS	low polyreactivity
QVQLVESGGGLVQAGGSLRLSCAASGSTFGKYVMGWYRQAPGKERELVAAISRSGGSTYYADYVKGRFTISRDNAMNTVYLQMNSLKPEDTAVYYCNAVVYFVGDFDYWGQGTQVSVSS	high polyreactivity
QVQLVESGGGLVQAGGSLRLSCAASGSIFGDYAMGWYRQAPGKERELVAAITWSGGSTTYADSVKGRFTISRDNAKNTVYLQMNSLKPEDTAVYCCAVYGWRFYSYDDYFDFNYWGQGTQVTVSS	low polyreactivity
QVQLVESGGGLVQAGGSLRLSCAASGSTFVWYGMGWYRQQPGNQREFVAAIYTSGGRTYYADSVKGRFTISRDNAKITVYLQMNSLKPEDTALYYCDTRPYFTYRWYDYWGQGTQVTVSS	high polyreactivity
QVQLVESGGGLVQAGGSLRLSCAASGSTFFSNAMGWYRQAPGKERELVATIRFGGGSTYADSVKGRFTISRDNAKNTVYLQMNSLIPEDTAVYYCAADDSDKRYTRSWYGYWGQGTQVTVSS	low polyreactivity
QVQLVKSGGGLVQAGGSLRLSCAASGFTIYYYAMGWYRQAPGKEMELVASITSGGSTYYADSVKGRFTISRDNAKNTVYLQMNSLKPEDTAVYYCAKTRFHSKEGDYWGQGTQVTVSS	low polyreactivity
QVQLVDSGGGLVQAGGSLRLSCAASGSTFAFYAMVWSRQAPGKERELVAANSSNGVSTYYADSVKGRFTISRDNAKNTVYLQMKSLKPEDTAVYYCARDVYASPRLYTSRYNYWGQGTQVTVSS	low polyreactivity
QVQLVESGGGLVQAGGSLRLSCAASGFTFVNYAMGWYRQAPGKERELVAAISSGGRTYYADSVKGRFTISRDNAKNTVYLQMNSLKPEDTAVYYCAARYKGRAIWMDYWGQGTQVTVSS	high polyreactivity
QVQLVESGGGLVQAGGSLRLSCAASGRISTTYSMGWYRPAPGKERELVAAITIGGGTNYADSVKGRFTISRDNAKNTVYLQMNSLKPEDTAVFYCNADRTASFAYDYWGQGTQVTVSS	low polyreactivity
QVQLVESGGGLVQAGGSLRLSCAASGIIFAYYAMGWYRQAPGKERELVASITNTGSTYYADSVKGRFTISRDNAKNTVYLQMNSLKPEDTAVYFCNAVLSSNTKWRYPGDYLGQGTQVTVSS	low polyreactivity
QVQLVESGGGLVQAGGSLRLSCAASGRTFRNNAMGWYRQAPGKERELVASISKSGGRTYYADSVKGRFTISRDNAKNTVYLQMNSLKPEDTAVYYCAAYRIHVYPAGLSWQYYYELDYWGQGTQVTVSS	high polyreactivity
QVQLVESGGGLVQAGGSLRLSCAASGSIFYFNAMGWYRQAPGKERQLVAAITSGGNTYYADSVKGRFTISRDNAKNTVYLQMNSLKPEDTAVYYCAKRGFRFPYPSLDYWGQGTQVTVSS	low polyreactivity
QVQLVESRGGLVQAGGSLRLSCACSGGIFVKSAMGCYRKAPCKERELVAAISKRGGRTYYADSVKGRFTISRDNAKNTVYLQMNSLKPEDTAVYYCYADVGVEYDYWGQGTQVTVSS	high polyreactivity
QVQLVESGGGLVQAGGSLRLSCAASGLIFLYYVMAWYRQAPGKERELVAGISRSGGRTNYADSVKGRFTISRDNAKNTVYLQMNSLKPEDTAVYYCAALLSIGQPKPTWYYYWGQGTQVTVSS	high polyreactivity
QVQLVESGGGLVQAGGSLRLSCAASGSIFEGNGMGWYRQAPGQERELVAAITFRSGSTYYADSVKGRFTISRDNAKNTVYLQMNSLKPEDTAVYYCAADEYYQGYAYDYWGQGTPVTVSS	low polyreactivity
